Laboratory results taken from patent publication US20210147558A1 (OSE IMMUNOTHERAPEUTICS, published 2021).

Biological target: T1, human CMKLR1 (Chemokine-like receptor 1) (human, UniProt Q99788 1-373)
T1 sequence: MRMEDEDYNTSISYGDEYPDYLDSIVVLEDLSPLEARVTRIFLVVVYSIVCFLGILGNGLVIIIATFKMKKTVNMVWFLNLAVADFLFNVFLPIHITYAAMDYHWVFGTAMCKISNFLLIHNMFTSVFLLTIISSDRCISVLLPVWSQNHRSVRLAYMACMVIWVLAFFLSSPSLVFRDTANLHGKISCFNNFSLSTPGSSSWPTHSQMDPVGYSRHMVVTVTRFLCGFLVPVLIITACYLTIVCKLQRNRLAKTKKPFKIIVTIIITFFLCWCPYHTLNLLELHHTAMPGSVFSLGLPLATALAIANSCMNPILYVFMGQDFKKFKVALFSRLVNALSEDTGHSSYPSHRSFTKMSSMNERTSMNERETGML
Assay: cell-based or functional assay

B1: anti-CMKLR1 antibody clone 2G1 (antibody, V domains shown)
VH: EVQLVASGGGLVQPGGSLKLSCAASGFTFSSYGMSWVRQTPDRRLELVATINRYGGSTYYPDSVKGRFTISRDNAKNTLYLQMSSLKSEDTAMYYCPRLIYYGNEGDSWGQGTTLTVSS
VL: QIVLTQSPAIMSASPGEKVTMTCSASSSVSFMHWYQQKSGTSPKRWIYDTTKLTSGVPARFSGSGSGTFYSLTISSMEAEDAATYYCQQWNSKPPLTFGPGTKLELKR
  IC50 (read off the curve) of the partial decrease (about one fifth); 2G1 with chemerin 6 nM (circles), beta-arrestin recruitment, CHO-K1 CMKLR1 cells: ~0.01 µM
  IC50 (read off the curve) of the partial decrease (about one third); 2G1 with chemerin 2 nM (diamonds), beta-arrestin recruitment, CHO-K1 CMKLR1 cells: ~0.02 µM
